{
  "source": "patent EP3917571B1",
  "biological_target": "ERp57 (PDIA3), human, endogenous in MDA-MB-231 ER-G2 cells (human) (UniProt P30101)",
  "sequence (P30101 25-505)": "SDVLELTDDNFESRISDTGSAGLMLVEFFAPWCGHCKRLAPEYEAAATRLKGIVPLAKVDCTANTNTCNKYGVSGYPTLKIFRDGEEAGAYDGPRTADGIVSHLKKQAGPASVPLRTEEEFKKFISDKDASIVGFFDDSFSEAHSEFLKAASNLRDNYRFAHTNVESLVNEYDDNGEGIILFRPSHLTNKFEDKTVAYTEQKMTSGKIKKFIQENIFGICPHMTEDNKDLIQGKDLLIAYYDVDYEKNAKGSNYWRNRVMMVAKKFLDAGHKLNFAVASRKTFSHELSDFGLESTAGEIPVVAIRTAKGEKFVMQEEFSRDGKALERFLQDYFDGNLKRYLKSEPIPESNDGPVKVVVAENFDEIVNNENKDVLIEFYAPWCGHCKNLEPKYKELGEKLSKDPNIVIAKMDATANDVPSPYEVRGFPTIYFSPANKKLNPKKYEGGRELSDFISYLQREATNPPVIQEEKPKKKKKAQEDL",
  "experiment": "proximity ligation assay on live, intact cells (probes ab10286 and ab13506)",
  "data": [
    {"binder": "Calnexin (Cnx), human, endogenous in MDA-MB-231 ER-G2 and Huh7 cells (protein, UniProt P27824 21-592, looked up, O-GalNAc (Tn) glycosylation mapped at T50, T59, T66, T79, S81 and S86 after GALA activation) HDGHDDDVIDIEDDLDDVIEEVEDSKPDTTAPPSSPKVTYKAPVPTGEVYFADSFDRGTLSGWILSKAKKDDTDDEIAKYDGKWEVEEMKESKLPGDKGLVLMSRAKHHAISAKLNKPFLFDTKPLIVQYEVNFQNGIECGGAYVKLLSKTPELNLDQFHDKTPYTIMFGPDKCGEDYKLHFIFRHKNPKTGIYEEKHAKRPDADLKTYFTDKKTHLYTLILNPDNSFEILVDQSVVNSGNLLNDMTPPVNPSREIEDPEDRKPEDWDERPKIPDPEAVKPDDWDEDAPAKIPDEEATKPEGWLDDEPEYVPDPDAEKPEDWDEDMDGEWEAPQIANPRCESAPGCGVWQRPVIDNPNYKGKWKPPMIDNPSYQGIWKPRKIPNPDFFEDLEPFRMTPFSAIGLELWSMTSDIFFDNFIICADRRIVDDWANDGWGLKKAADGAAEPGVVGQMIEAAEERPWLWVVYILTVALPVFLVILFCCSGKKQTSGMEYKKTDAPQPDVKEEEEEKEEEKDKGDEEEEGEEKLEEKQKSDAEEDGGTVSQEEEDRKPKAEEDEILNRSPRNRKPRRE", "values": [
      {"measurement": "proximity ligation assay signal, fold increase in MDA ER-G2 over wild-type MDA cells", "value": 10, "unit": "fold"}
    ]}
  ]
}
